Measurements taken from the supplement of paper PMC10567573.

B1: P2RY14 (parent)
chain: KKIFKSHLKSSRNSTSVKKKSSRN

Variants of: B1
Test: protein stability index of a GFP-peptide fusion (GPS, HEK-293T) (PSI 1-6); higher = more stable
Conditions: c terminus: a fixed tail appended
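Note: lentivirally expressed fusions sorted by FACS into six bins by GFP to DsRed ratio, PSI derived from sequencing read proportions per bin multiplied by bin number.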

Protein stability index, by site and new letter:
I3: G 4.28, W 3.79, P 4.38, Y 4.39, N 4.63, C 4.27, F 3.91, L 4.23, E 5.07, V 4.04, R 4.44, A 4.18, T 4.66, K 4.18, S 4.6, Q 4.14, M 4.77, H 4.34, D 4.95
K9: S 3.87, M 4, W 3.21, Y 3.67, A 4.07, G 4.01, P 4.47, T 3.98, E 4.51, R 4.27, L 4.05, N 4.5, D 4.05, Q 4.04, I 3.7, F 3.57, V 3.39, H 4.41, C 4.37
H7: Q 3.67, N 4, K 4.39, E 4.41, V 3.93, R 4.28, F 3.76, I 3.72, P 3.74, L 3.7, Y 3.38, S 4.15, C 4.05, A 3.79, W 3.3, T 4.41, M 3.79, D 4.36, G 4.27
K2: P 3.98, M 3.53, Q 4.04, C 3.88, S 4.37, W 3.12, H 4.01, V 3.73, A 3.91, D 4.66, F 3.63, T 4.3, L 3.2, I 3.35, E 4.29, N 4.13, G 4.12, Y 3.67, R 3.88
K1: Q 4.25, D 4.5, F 3.8, A 4.12, N 4.4, M 3.43, S 4.26, W 2.7, L 3.18, E 3.97, P 4.22, I 2.88, Y 3.58, H 4.63, G 4.51, R 3.42, V 3.5, T 4, C 3.51
S6: Y 3.34, K 4.33, L 3.18, I 3.5, A 3.68, H 3.9, T 4.11, F 3.34, D 4.62, N 4.57, W 3.26, R 4.49, E 4.36, V 3.79, M 3.82, P 3.69, C 4.06, G 4.18, Q 4.07
F4: W 3.96, R 4.48, C 4.27, P 4.58, N 4.49, A 4.49, D 4.6, K 4.47, Q 4.71, I 4.3, L 4, Y 3.67, E 4.45, M 4.28, S 4.72, V 4.39, H 4.07, T 4, G 4.56
K5: R 3.67, H 4.33, I 3.55, V 3.93, Q 4.27, S 4.2, D 4.16, N 4.33, M 3.95, Y 3.48, F 4.01, T 4.06, E 3.89, G 4.44, W 3.45, A 4.33, L 3.76, P 4.18, C 4.05
L8: P 4.33, T 4.3, I 4.16, K 4.29, M 4.11, S 5.01, C 4.39, N 4.31, H 4.05, E 4.43, Q 3.49, F 4.04, D 4.58, W 3.95, A 4.56
